In patent publication US20110256153A1 (IMMUNOGEN, published 2011):
Numbering of substitutions follows the chain as printed. Where “and” joins values, the source holds several entries; their conditions need not be identical. Equal values may be shown once.

B1: huCD37-3-SMCC-DM1 (antibody, human IgG1, kappa, V domains shown)
VH: QVQVQESGPGLVAPSQTLSITCTVSGFSLTTSGVSWVRQPPGKGLEWLGVIWGDGSTNYHPSLKSRLSIKKDHSKSQVFLKLNSLTAADTATYYCAKGGYSLAHWGQGTLVTVSS
VL: DIQMTQSPSSLSVSVGERVTITCRASENIRSNLAWYQQKPGKSPKLLVNVATNLADGVPSRFSGSGSGTDYSLKINSLQPEDFGTYYCQHYWGTTWTFGQGTKLEIKR
modifications: DM1 attached through SMCC linker; attachment residues not stated; 3.5-4 DM1 per antibody
notes: heavy chain version as for huCD37-3, see its note
B2: huCD37-3-SPP-DM1 (antibody, human IgG1, kappa, V domains shown)
VH: B1 VH
VL: B1 VL
modifications: DM1 attached through SPP linker; attachment residues not stated; 3.5-4 DM1 per antibody
notes: as for B1
B3: huCD37-3v1.0 (antibody, human IgG1, kappa, V domains shown)
VH: B1 VH
VL: B1 VL
notes: Resurfaced (humanized) CD37-3, version 1.0
B4: huCD37-3 (antibody, human IgG1, kappa, V domains shown)
VH: B1 VH
VL: B1 VL
notes: also called huCD37-3 Ab; huCD37-3 antibody
B5: huCD37-3-sulfo-mal-DM4 (antibody, human IgG1, kappa, V domains shown)
VH: B1 VH
VL: B1 VL
modifications: DM4 attached through 3-sulfo-mal linker; attachment residues not stated; 3.5-4 DM4 per antibody
notes: as for B1
B6: huCD37-3v1.01 (antibody, human IgG1, kappa, V domains shown)
VH: B1 VH with P61S
VL: B1 VL
notes: also called huCD37-3v1.1
B7: muCD37-38 (antibody, mouse IgG1, kappa, V domains shown)
VH: DVQLQESGPDLVKPSQSLSLTCTVTGYSITSGFGWHWIRQFPGNKLEWMAYILYSGGTDYNPSLKSRISITRDTSKNQFFLRLSSVTTEDTATYYCARGYYGYGAWFVYWGQGTLVTVSA
VL: QIVLTQSPAIMSASPGEKVTMTCSASSSVTYMHWYQQKSGTSPKRWIYDTSKLASGVPARFSGGGSGTSYSLTISSMEAEDAATYYCQQWISNPPTFGGGTKLEIKR
notes: Murine hybridoma antibody
B8: muCD37-57 (antibody, mouse IgG2a, kappa, V domains shown)
VH: B7 VH with V12L, G34A, A50G, G57S, D59V, N61S, R82Q, S84N, V108A
VL: B7 VL with S26T, G64S, I91S, S92D, G99S
notes: Murine hybridoma antibody
B9: muCD37-56 (antibody, mouse IgG1, kappa, V domains shown)
VH: B7 VH with G34A, A50G, L53H, D59N, I68V, R82Q, S84N, Y103F, V108A, T117P
VL: B7 VL with I10F, E17D, S76T, N93D
notes: Murine hybridoma antibody

How the values were obtained:
[1] = biological target: T1, human CD37 (human, UniProt P11049 1-278); assay: flow cytometry titration on BJAB cells (FIG. 20A); apparent Kd
T1 construct: Tetraspanin antigen; Expressed on 300-19 cells transfected with pSRa-CD37 (entire CDS) or endogenous on WSU-DLCL-2, BJAB and Ramos lymphoma cells; also called CD37 antigen; human CD37 wildtype
T1 sequence: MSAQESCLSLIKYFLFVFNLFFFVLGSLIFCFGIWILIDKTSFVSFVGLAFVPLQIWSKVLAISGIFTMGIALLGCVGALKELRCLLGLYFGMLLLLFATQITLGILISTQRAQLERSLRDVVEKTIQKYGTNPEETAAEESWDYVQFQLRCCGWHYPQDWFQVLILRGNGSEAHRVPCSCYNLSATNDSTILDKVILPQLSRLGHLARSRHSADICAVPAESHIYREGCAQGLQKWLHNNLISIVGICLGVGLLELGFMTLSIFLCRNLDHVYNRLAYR

[2] = biological target: T1, human CD37; assay: cell-based or functional assay
[3] = biological target: T1, human CD37; assay: competition flow cytometry on BJAB cells; competitor PE-labeled muCD37-3 (1 nM)
Protocol: Flow cytometry binding assays using BJAB cells and a competitive binding format were used to evaluate binding affinity of chimeric and humanized versions of CD37-3. BJAB cells were incubated with a 1 nM concentration of PE-labeled muCD37-3 antibody and competition was measured by adding varying amounts of muCD37-3, chCD37-3, huCD37-3v1.0 or huCD37-3v1.01. The samples were incubated for 3 hrs at 4° C. Then, the cells were pelleted, washed with FACS buffer and resuspended in 200 μL of PBS containing 1% formaldehyde. Samples were acquired using a FACSCalibur flow cytometer with the HTS multiwell sampler and analyzed using CellQuest Pro (all from BD Biosciences, San Diego, US). The resulting mean PE fluorescence was plotted against the amount of competing antibody used in a semi-log plot. FIG. 9B depicts the dose-response curves generated by non-linear regression for each antibody. The value for the apparent dissociation constant (Kd) of each antibody was calculated using GraphPad Prism v4 (GraphPad software, San Diego, Calif.).

[4] = biological target: T2, macaque CD37 (macaque, UniProt P11049 1-277 (human entry)); assay: flow cytometry, 300-19/CD37mac cells
T2 construct: Expressed on 300-19 cells transfected with pSRa-CD37mac (300-19/CD37mac cells); also called macaca CD37; macaque derived CD37 antigen
T2 chain: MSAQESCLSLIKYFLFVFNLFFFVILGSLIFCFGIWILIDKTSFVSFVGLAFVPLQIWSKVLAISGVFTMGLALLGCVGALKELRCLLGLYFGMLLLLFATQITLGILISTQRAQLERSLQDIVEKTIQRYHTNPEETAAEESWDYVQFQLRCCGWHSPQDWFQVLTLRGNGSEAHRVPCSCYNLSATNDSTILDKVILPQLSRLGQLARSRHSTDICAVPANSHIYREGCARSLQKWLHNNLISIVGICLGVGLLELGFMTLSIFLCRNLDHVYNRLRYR
Protocol: (§1) Binding specificity was tested by flow cytometry using purified antibodies. […] All murine antibodies were incubated for 3 h with either CD37-expressing 300-19 cells or the non-transfected 300-19 cells (1×10⁵ cells per sample) in 100 μL FACS buffer (RPMI-1640 medium supplemented with 2% normal goat serum). Then, the cells were pelleted, washed, and incubated for 1 h with 100 μL of FITC-conjugated goat anti-mouse IgG-antibody (Jackson Laboratory, 6 μg/mL in FACS buffer). The cells were pelleted again, washed with FACS buffer and resuspended in 200 μL of PBS containing 1% formaldehyde. Samples were acquired using a FACSCalibur flow cytometer with the HTS multiwell sampler or a FACS array flow cytometer and analyzed using CellQuest Pro (all from BD Biosciences, San Diego, US).
The murine antibodies muCD37-3, muCD37-12, muCD37-38, […], muCD37-51, muCD37-56 and muCD37-57 were assayed for their ability to bind to 300-19/CD37mac cells expressing macaque CD37. Flow cytometry binding assays were carried out using secondary FITC-conjugated goat-anti-murine or goat-anti-human antibodies, analyzed as described in Example 2. Binding was compared to the previously described anti-CD37 antibody WR17 and the anti-CD37 SMIP TRU-016. […] In contrast, muCD37-3, muCD37-12, the previously described anti-CD37 antibody WR17 and the anti-CD37 SMIP TRU-016 are unable to bind the macaque derived CD37 antigen.

[5] = biological target: T1, human CD37; assay: flow cytometry titration; apparent Kd; cells not named
[6] = biological target: T1, human CD37; assay: flow cytometry titration on BJAB cells; apparent Kd
Protocol: as §1
The humanized antibodies huCD37-38, huCD37-50, huCD37-51, huCD37-56 and chCD37-57 were assayed for their binding affinity to BJAB cells in comparison to their murine counterparts. Flow cytometry binding assays were carried out using secondary FITC-conjugated goat-anti-murine and -anti-human antibodies, analyzed as described in Example 2 and dose-response curves were generated by non-linear regression for each antibody. The value for the apparent dissociation constant (Kd) of each antibody was calculated using GraphPad Prism v4 (GraphPad software, San Diego, Calif.).

[7] = biological target: T3, hCD37-M1 (human/murine chimera, UniProt P11049 1-281); assay: flow cytometry, 300-19 cells expressing hCD37-M1, 1.5 µg/mL antibody
T3 construct: stably expressed on 300-19 cells; also called hCD37-M1 variant
T3 chain: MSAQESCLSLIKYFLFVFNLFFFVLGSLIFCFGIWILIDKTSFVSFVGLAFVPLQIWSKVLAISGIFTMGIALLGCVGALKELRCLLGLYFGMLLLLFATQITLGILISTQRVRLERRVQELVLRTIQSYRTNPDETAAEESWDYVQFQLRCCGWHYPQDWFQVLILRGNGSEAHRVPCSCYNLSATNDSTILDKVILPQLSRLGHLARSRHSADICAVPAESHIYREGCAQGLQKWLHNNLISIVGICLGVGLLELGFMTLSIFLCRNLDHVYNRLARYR
Protocol: as §1
(§2) Binding of various CD37 antibodies to cells expressing human CD37 wildtype and variants was analyzed by flow cytometry using 1.5 μg/mL of each antibody. The isolated antibodies of this invention were compared to commercially available CD37 antibody WR17, as well as the TRU-016 SMIP. […] Likewise, all antibodies tested bound the hCD37-M3 variant (FIG. 18B). In contrast, the isolated antibodies of this invention bound the hCD37-M1 variant, while TRU-016 and WR17 were unable to bind hCD37-M1 variant (FIG. 19A). The CD37-50 and CD37-51 antibodies and TRU-016 were also able to bind the hCD37-M45 variant. […] In contrast, the CD37-3, CD37-12, CD37-38, CD37-56 and CD37-57 antibodies require at least one of the AA residues in the hCD37-M45 variant that were changed to the corresponding murine AA residues for binding to the CD37 antigen.

[8] = biological target: T4, hCD37-M45 (human/murine chimera, UniProt P11049 1-281); assay: flow cytometry, 300-19 cells expressing hCD37-M45
T4 construct: stably expressed on 300-19 cells; also called hCD37-M45 variant
T4 chain: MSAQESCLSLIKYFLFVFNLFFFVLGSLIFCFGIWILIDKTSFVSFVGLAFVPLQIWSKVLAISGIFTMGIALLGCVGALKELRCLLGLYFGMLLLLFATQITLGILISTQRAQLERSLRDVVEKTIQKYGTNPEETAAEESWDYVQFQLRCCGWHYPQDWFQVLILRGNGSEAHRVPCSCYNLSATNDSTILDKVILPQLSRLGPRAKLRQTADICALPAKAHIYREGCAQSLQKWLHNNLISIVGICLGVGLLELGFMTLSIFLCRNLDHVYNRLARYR
Protocol: as §1, §2

[9] = biological target: T5, hCD37-M3 (human/murine chimera, UniProt P11049 1-281); assay: flow cytometry, 300-19 cells expressing hCD37-M3, 1.5 µg/mL antibody
T5 construct: stably expressed on 300-19 cells; also called hCD37-M3 variant
T5 chain: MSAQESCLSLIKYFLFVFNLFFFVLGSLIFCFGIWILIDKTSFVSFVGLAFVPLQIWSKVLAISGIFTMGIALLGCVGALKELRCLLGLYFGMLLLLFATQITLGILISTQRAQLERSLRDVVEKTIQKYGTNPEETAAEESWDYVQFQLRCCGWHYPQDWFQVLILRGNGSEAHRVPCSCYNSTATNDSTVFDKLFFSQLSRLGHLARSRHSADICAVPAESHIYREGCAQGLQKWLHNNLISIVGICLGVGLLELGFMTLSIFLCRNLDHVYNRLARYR
Protocol: as §1, §2

Row | Binder | Kd [1] | EC50 of in vitro cytotoxicity, BJAB cells [2] | EC50 of in vitro cytotoxicity, Daudi cells [2] | binding result [4] | Kd [6] | binding result [7] | binding result [8] | binding result [9] | other results
1 | B1 | 0.46 nM | 0.041 nM and 0.019 nM | 0.065 nM and 0.036 nM | – | – | – | – | – | EC50 of in vitro cytotoxicity, Namalwa cells [2]: 0.033 nM; EC50 of in vitro cytotoxicity, Raji cells [2]: 0.071 nM; EC50 of in vitro cytotoxicity, Raji-VCR cells [2]: 0.11 nM; EC50 of in vitro cytotoxicity, Ramos cells [2]: 0.16 nM; EC50 of in vitro cytotoxicity, SU-DHL-4 cells [2]: 0.031 nM; EC50 of in vitro cytotoxicity, WST-8 assay, Daudi cells [2]: 0.067 nM; EC50 of in vitro cytotoxicity, WST-8 assay, Granta-519 cells [2]: 0.047 nM
2 | B2 | 0.56 nM | 0.11 nM | 0.12 nM | – | – | – | – | – | EC50 of in vitro cytotoxicity, Granta-519 cells [2]: 0.13 nM
3 | B3 | – | – | – | – | – | – | – | – | EC50 [3]: 1 nM
4 | B4 | 0.26 nM | – | – | no binding | 0.2 nM | – | – | – | Kd [5]: 0.28 nM
5 | B5 | 0.89 nM | 0.11 nM | 0.14 nM | – | – | – | – | – | EC50 of in vitro cytotoxicity, Granta-519 cells [2]: 0.088 nM
6 | B6 | – | – | – | – | – | – | – | – | EC50 [3]: 0.6 nM
7 | B7 | – | – | – | binds | 0.4 nM | binds | no binding (tested: 1.5 µg/mL) | binds | –
8 | B8 | – | – | – | binds | 1 nM | binds | no binding (tested: 1.5 µg/mL) | binds | –
9 | B9 | – | – | – | binds | 0.4 nM | binds | no binding (tested: 1.5 µg/mL) | binds | –
